Reference: US20090053196

Tested on: FLAG-tagged UNC-45 (UNC-45^FLAG)

## ^mycCHN-1^ΔU-box
  in vitro ubiquitylation of UNC-45, Western blot: a CHN-1 version lacking the U-box, CHN-1^ΔU-box, was not able to ubiquitylate UNC-45
